The target of data set [1] is T1, CRF1 (Homo sapiens, UniProt P34998, I163A).
T1 construct: made in house; host or cells: HEK293T cells, transient
T1 sequence (P34998 24-415 I163A): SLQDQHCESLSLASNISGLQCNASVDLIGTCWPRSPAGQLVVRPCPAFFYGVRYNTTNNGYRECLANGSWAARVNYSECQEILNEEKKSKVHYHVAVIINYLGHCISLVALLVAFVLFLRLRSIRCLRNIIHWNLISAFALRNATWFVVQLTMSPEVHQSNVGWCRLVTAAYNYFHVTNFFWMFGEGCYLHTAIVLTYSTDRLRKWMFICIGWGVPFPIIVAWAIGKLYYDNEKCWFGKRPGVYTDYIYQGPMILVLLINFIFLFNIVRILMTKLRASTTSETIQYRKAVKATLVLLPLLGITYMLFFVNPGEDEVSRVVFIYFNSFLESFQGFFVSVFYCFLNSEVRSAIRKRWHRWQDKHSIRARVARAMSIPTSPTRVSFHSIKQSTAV
The experiment in a line: Thermostability of CRF1 bound to antagonist CP-376395, purified in DDM. Conditions: antagonist CP-376395 bound, versus CRF1 WT. The class given is physicochemical. The procedure:
(§1) In order to stabilise CRF1 in the antagonist conformation, a systematic alanine-scan was performed to identify mutations that stabilise receptors bound to the antagonist ligand CP-376395. Mutating I2.58 to alanine (I163A) confers significant stabilisation in CRF1, increasing the thermal stability by 3.9 (±0.5)° C. (FIG. 15).
(§2) CRF1 receptors were transiently expressed in HEK293T cells on 10 cm plates using GeneJuice transfection reagent used according to manufacturers guidelines.
(§3) Cells expressing CRF1 were harvested in PBS approximately 40 hours post-transfection and re-suspended in 950 μl Re-suspension buffer (50 mM Tris-HCl, 150 mM NaCl, 2× Complete EDTA-free Protease inhibitor cocktail (Roche), pH7.5). Cells were incubated with 120 nM CP-376395 and 30 nM [^3H]-CP-376395 at 37° C. for 2 hours before transferring to ice for 5 minutes. The receptors were solubilised by the addition of 1% DDM and incubated at 4° C. for 1 hour with gentle agitation. Insoluble material was removed by centrifugation at 16000×g for 10 minutes at 4° C. The solubilised receptors were partially purified with Ni-NTA agarose (Qiagen). Ni-NTA resin was equilibrated in Equilibration buffer (50 mM Tris-HCl, 150 mM NaCl, 2× Complete EDTA-free Protease inhibitor cocktail (Roche), 0.025% DDM, pH7.5) and 400 μl of a 50:50 resin slurry was added to each sample. Resin slurries were incubated at 4° C. for 1 hour 30 minutes with gentle agitation to bind receptors. Resin slurries were then transferred to a batch column filter plate (Chromabond) and centrifuged at 1000×g for 1 minute, discarding the flow-through. Resin was washed twice with 1 ml of Wash buffer (50 mM Tris-HCl, 150 mM NaCl, 2× Complete EDTA-free Protease inhibitor cocktail (Roche), 0.025% DDM, 20 mM Imidazole, pH7.5) and then eluted in 1 ml of Elution buffer (50 mM Tris-HCl, 150 mM NaCl, 2× Complete EDTA-free Protease inhibitor cocktail (Roche), 0.025% DDM, 100 mM histidine, 30 nM [^3H]-CP-376395, 120 nM CP-376395, pH7.5) by resuspension at 4° C. for 30 minutes. Eluted samples were used directly in the thermostability assay. […]

Data set [2] has as its system CRF1. Described as above. The data set is classed as physicochemical, human. Conditions: antagonist-bound state (CP-376395), purified in DDM. The procedure:
as §1, §2, §3

In data set [3] the target is T2, OX2 receptor (Homo sapiens, UniProt O43614, F28L/I308V/Y91L).
T2 construct: made in house; host or cells: transiently transfected mammalian cells (HEK293T inferred from 'as described for M4')
T2 sequence (O43614 1-444 F28L/Y91L/I308V): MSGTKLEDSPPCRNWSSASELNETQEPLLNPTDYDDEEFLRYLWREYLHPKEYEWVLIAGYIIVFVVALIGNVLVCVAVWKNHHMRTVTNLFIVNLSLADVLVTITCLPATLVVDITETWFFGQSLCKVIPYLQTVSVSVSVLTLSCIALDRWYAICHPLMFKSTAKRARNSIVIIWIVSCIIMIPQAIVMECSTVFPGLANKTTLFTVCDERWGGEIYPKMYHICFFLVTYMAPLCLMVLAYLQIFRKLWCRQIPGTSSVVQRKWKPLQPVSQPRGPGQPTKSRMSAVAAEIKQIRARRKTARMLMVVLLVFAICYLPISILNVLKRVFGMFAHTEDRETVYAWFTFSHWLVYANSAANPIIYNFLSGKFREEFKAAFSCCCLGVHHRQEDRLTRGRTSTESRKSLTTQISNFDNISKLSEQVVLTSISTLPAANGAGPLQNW
The experiment in a line: Thermostability of OX2 receptor bound to antagonist EMPA. The class given is physicochemical. Conditions: antagonist EMPA bound, compared to WT OX2. The protocol: (§4) Transiently transfected mammalian cells expressing M4 were harvested about 40 hours post transfection and the receptors were solubilised in 50 mM Tris pH 7.5/250 mM NaCl/1% DDM/EDTA free protease inhibitor mix for 1 hour rotating at 4° C. The solubilised lysate was then cleared by centrifugation at 13000 rpm for 15 minutes at 4° C. The solubilised receptors were then purified on Ni-NTA beads and eluted with 100 mM histidine. The eluted receptor was used in radioligand binding assay. Thermostability of M4 was measured using 25 μL of purified receptor mixed with 95 μL of 12 nM [^3H]-NMS (final concentration of 10 nM). The sample was incubated for 60 min at 4° C., then 30 min at the specified temperature and then 30 min at 4° C. Receptor bound and free radioligand were separated using a 96-well plate gel filtration assay.
(§5) A tandem alanine and leucine scanning mutagenesis strategy was used to identify mutations that enhanced the thermostability of OX2 bound to the small-molecule antagonist EMPA.
(§6) Thermostability assays were preformed on partially purified receptors as described for M4, with the following amendments. Cell lysates were solubilised in 50 mM Tris pH7.4, 150 mM NaCl, 1% DDM supplemented with 1× complete EDTA free protease inhibitor cocktail (Roche). Radioligand binding reactions were set up using 1/10 volume eluted receptor mixed with 20 nM ^3H-EMPA (final concentration) per temperature point.

Data set [4] deals with OX2 receptor. Described as above. The class given is physicochemical, human. Conditions: bound to antagonist EMPA. The protocol: as §4, §5, §6

Numbering of substitutions follows the chain as printed. Numbers in names are those of the source.

B1: CRF1 I163A: human CRF1 mutant, I2.58 to alanine (I163A) (protein, UniProt P34998 24-415, looked up, variant I163A)
Corticotropin-releasing …: T1 sequence (P34998 24-415 I163A)
On to B1, for which the “increase of thermal stability” value in the data set with CRF1 [1] is reported as 3.9 (±0.5) ° C. Besides, the Tm with CRF1 [2] was 30.7 °C.

B2: OX2Y91L (protein, UniProt O43614 1-444, looked up, variant Y91L)
Orexin receptor type 2: T2 sequence (O43614 1-444 F28L/Y91L/I308V) with L28F, V308I
Turning to B2, in the data set with OX2 receptor [3], the “increase of Tm” value is 1 °C. Further, the Tm with OX2 receptor [4] was determined as 29.69 °C.

(Values after patent US8703915B2, “Mutant proteins and methods for producing them” (Heptares Therapeutics Limited, priority 2009, dated 2014).)
